Experimental data taken from patent publication CN117866087A.

Assays:
pTau181标准品 [1] = assay: bead sandwich flow cytometry; Tau-2 on beads as capture, PE-labelled anti-pTau181 antibody as detector, 5μg/mL pTau181 standard
pTau181标准品 [2] = assay: bead sandwich flow cytometry; Tau-3 on beads as capture, PE-labelled anti-pTau181 antibody as detector, 5μg/mL pTau181 standard

B1: 实施例3纯化后的重组抗体(重组抗pTau181单克隆抗体) (antibody, mouse IgG1, kappa, V domains shown)
VH: LQQPGSEYARPGASVKLSCKASGYTFTSYWMHWVKQRHGQLLEWIGNIYPGSGSSNYDEKFKSKGTLTVDTSSSTAYMHLSSLTSEDSAVYYCTRSGWLLRDYAMDYWGQGTSVTVSS
VL: DVLMTQTPLSLPVSLGDQASISCRSSQSIVHSNGNTYLEWYLQKPGQSPKLLIYKVSTRFSGVPDRFSGSGSGTDFTLKISRVEAEDLGVYYCFQGSHVPYTFGGGTKLEIKA
modifications: 在实施例4中偶联藻红蛋白荧光素(方案1)或偶联微球(方案2)
Binder B1 has a 荧光信号强度 (pTau181标准品 [1]) of 343000 and a 荧光信号强度 (pTau181标准品 [2]) of 420000.
